Measured values published in patent US20260028383A1 (KINE BIOTECH, published 2026).
Where a chain is given by its changes, count along the chain named. In names and notes the source's numbering stands. Like-named read-outs stand apart in the source and are kept apart here.

T1: intermediate-affinity IL-2R (containing the β/γc-subunits of the IL-2R) expressed on HH cells (human, UniProt P14784 27-551; P31785 23-369)
T1 sequence (looked up) 1: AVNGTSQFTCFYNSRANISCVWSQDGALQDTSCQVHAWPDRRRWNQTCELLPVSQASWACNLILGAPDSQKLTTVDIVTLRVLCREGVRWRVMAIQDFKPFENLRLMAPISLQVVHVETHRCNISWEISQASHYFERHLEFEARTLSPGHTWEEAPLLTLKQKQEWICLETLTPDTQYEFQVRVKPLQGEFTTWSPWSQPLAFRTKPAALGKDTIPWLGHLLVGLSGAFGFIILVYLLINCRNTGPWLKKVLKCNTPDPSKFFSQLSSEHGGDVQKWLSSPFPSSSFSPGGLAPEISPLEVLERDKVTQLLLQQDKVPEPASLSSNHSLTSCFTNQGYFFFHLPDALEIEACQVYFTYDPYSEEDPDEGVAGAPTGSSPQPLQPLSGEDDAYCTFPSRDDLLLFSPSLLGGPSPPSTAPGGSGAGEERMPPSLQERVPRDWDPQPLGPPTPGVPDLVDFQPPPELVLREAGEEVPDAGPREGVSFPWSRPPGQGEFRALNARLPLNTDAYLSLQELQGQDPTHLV
T1 sequence (looked up) 2: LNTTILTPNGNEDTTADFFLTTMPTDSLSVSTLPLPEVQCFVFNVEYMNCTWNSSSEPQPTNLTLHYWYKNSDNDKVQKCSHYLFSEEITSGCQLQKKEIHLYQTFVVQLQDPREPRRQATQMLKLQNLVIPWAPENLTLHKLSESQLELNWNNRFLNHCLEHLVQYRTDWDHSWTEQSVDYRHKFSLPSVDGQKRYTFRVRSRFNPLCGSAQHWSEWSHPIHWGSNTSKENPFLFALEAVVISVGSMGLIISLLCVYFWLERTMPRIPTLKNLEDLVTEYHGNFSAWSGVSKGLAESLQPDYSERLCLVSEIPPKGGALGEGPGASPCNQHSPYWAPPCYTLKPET

T2: high-affinity IL-2R (containing the α/β/γc-subunits of the IL-2R) expressed on CTLL-2 cells (mouse, UniProt P01590 22-268; P16297 27-539; P34902 23-369)
T2 sequence (looked up) 1: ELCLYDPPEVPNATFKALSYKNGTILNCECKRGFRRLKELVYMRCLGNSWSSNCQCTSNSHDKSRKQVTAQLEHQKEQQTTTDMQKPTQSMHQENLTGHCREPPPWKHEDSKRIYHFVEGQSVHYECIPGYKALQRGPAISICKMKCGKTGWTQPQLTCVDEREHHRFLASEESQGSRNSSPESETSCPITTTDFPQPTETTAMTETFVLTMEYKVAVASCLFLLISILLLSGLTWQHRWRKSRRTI
T2 sequence (looked up) 2: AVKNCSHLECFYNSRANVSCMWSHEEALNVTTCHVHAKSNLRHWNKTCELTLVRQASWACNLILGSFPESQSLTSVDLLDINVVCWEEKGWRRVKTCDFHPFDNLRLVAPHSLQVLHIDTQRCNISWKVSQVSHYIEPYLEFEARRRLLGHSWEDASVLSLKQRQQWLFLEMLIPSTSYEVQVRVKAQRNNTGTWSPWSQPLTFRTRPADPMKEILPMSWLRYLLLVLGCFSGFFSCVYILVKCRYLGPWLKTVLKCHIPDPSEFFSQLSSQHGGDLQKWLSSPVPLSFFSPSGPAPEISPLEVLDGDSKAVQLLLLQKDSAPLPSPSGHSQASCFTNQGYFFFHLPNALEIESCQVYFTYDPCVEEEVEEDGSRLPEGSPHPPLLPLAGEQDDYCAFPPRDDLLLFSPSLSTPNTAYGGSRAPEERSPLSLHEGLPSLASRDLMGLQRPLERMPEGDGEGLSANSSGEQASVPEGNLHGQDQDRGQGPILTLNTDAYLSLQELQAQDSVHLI
T2 sequence (looked up) 3: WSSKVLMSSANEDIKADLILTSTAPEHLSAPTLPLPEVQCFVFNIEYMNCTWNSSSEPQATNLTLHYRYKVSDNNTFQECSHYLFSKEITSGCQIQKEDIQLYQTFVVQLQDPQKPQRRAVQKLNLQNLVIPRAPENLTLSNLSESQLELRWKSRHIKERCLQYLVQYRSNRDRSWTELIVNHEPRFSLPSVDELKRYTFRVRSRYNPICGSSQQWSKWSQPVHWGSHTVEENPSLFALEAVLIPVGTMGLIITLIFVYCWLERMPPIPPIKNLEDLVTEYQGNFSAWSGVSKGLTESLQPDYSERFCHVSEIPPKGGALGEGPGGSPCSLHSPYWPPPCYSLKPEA

B1: IL-2 variant IL-2_#3 (F42V, Y45A, L72N, C125G) (ligand)
chain: APTSSSTKKTQLQLEHLLLDLQMILNGINNYKNPKLTRMLTVKFAMPKKATELKHLQCLEEELKPLEEVLNNAQSKNFHLRPRDLISNINVIVLELKGSETTFMCEYADETATIVEFLNRWITFGQSIISTLT
B2: IL-2 variant IL-2_#8 (F42V, Y45S, L72N, C125G) (ligand)
chain: B1 chain with A45S
B3: IL-2 variant IL-2_#12 (F42C, Y45N, L72V) (ligand)
chain: B1 chain with V42C, A45N, N72V, G125C
B4: mutant IL-2, IL-2v (AAG), with F42A, Y45A, and L72G substitutions of IL-2 (F. Hoffmann-La Roche Ltd) (ligand)
chain: B1 chain with V42A, N72G, G125C
B5: IL-2 variant IL-2_#28 (F42A, Y45D, L72D) (ligand)
chain: B1 chain with V42A, A45D, N72D, G125C
B6: IL-2 variant IL-2_#31 (F42A, Y45M, L72N) (ligand)
chain: B1 chain with V42A, A45M, G125C
B7: IL-2 variant IL-2_#9 (F42H, Y45D, L72I, C125G) (ligand)
chain: B1 chain with V42H, A45D, N72I

How the values were obtained:
Test in all cases: cell-based or functional assay
[1] = biological target: high-affinity IL-2R (containing the α/β/γc-subunits of the IL-2R) expressed on CTLL-2 cells (mouse) (UniProt P01590)
[2] = biological target: high-affinity IL-2R (containing the α/β/γc-subunits of the IL-2R) expressed on CTLL-2 cells (mouse) (UniProt P01590); remark: listed apart in the source
[3] = biological target: T1, intermediate-affinity IL-2R (containing …)
[4] = biological target: T2, high-affinity IL-2R (containing the …)
[5] = biological target: T1, intermediate-affinity IL-2R (containing …); remark: listed apart in the source
[6] = biological target: T1, intermediate-affinity IL-2R (containing …); remark: listed apart in the source
[7] = biological target: T2, high-affinity IL-2R (containing the …); remark: listed apart in the source
[8] = biological target: T1, intermediate-affinity IL-2R (containing …); remark: listed apart in the source
[9] = biological target: T2, high-affinity IL-2R (containing the …); remark: listed apart in the source
[10] = biological target: T1, intermediate-affinity IL-2R (containing …); remark: listed apart in the source

Molecule	EC50 of pSTAT-5 induction in HH cells (flow cytometry) [3] [nM]	EC50 of pSTAT-5 induction in CTLL-2 cells (flow cytometry) [4] [nM]	EC50 (HH/CTLL-2): EC50 on HH cells (intermediate-affinity IL-2R) divided by EC50 on CTLL-2 cells (high-affinity IL-2R) [5] [ratio]	also measured
wild-type IL-2 (proleukin) (from UniProt P60568 21-153) (ligand)	–	–	–	EC50 of pSTAT-5 induction in CTLL-2 cells (flow cytometry) [1]: 0.231 nM; EC50 (CTLL-2): pSTAT-5 induction in CTLL-2 cells (flow cytometry) [2]: 0.2 nM; EC50 of pSTAT-5 induction in CTLL-2 cells (flow cytometry) [2]: 0.17 nM
B1	9.6	44.1	0.22	–
B2	90.2	120	0.75	–
B3	0.556	2.32	0.24	–
B4	–	–	–	EC50 (HH): pSTAT-5 induction in HH cells (flow cytometry) [6]: 2.01 nM; EC50 (HH/CTLL-2): EC50 on HH cells (intermediate-affinity IL-2R) divided by EC50 on CTLL-2 cells (high-affinity IL-2R) [6]: 0.037 ratio; EC50 (CTLL-2): pSTAT-5 induction in CTLL-2 cells (flow cytometry) [7]: 54.1 nM
B5	–	–	–	EC50 of pSTAT-5 induction in HH cells (flow cytometry) [8]: 8.95 nM; EC50 of pSTAT-5 induction in CTLL-2 cells (flow cytometry) [9]: 9.56 nM; EC50 (HH/CTLL-2): EC50 on HH cells (intermediate-affinity IL-2R) divided by EC50 on CTLL-2 cells (high-affinity IL-2R) [10]: 0.94 ratio
B6	–	–	–	EC50 of pSTAT-5 induction in HH cells (flow cytometry) [8]: 0.11 nM; EC50 of pSTAT-5 induction in CTLL-2 cells (flow cytometry) [9]: 2.02 nM; EC50 (HH/CTLL-2): EC50 on HH cells (intermediate-affinity IL-2R) divided by EC50 on CTLL-2 cells (high-affinity IL-2R) [10]: 0.05 ratio
B7	17.9	10	1.79	–
